T1: recombinant human IL-1α (human, UniProt P01583 113-271)
T1 sequence: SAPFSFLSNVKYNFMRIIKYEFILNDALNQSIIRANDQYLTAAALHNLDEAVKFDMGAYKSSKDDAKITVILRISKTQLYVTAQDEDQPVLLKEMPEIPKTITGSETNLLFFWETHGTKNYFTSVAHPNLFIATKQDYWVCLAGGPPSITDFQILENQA

T2: cynomolgus IL-1α (cynomolgus, UniProt P79340 113-271, limits assumed)
T2 sequence (looked up): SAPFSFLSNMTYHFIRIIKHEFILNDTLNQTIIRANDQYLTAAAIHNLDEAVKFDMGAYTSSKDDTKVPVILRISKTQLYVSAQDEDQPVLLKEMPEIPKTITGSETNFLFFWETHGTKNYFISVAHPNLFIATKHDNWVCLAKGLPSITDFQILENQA


What was measured:
recombinant human IL-1α [1] = biological target: T1, recombinant human IL-1α; experiment: cell-based or functional assay
cynomolgus IL-1α [2] = biological target: T2, cynomolgus IL-1α; experiment: cell-based or functional assay
recombinant human IL-1α [3] = biological target: T1, recombinant human IL-1α; experiment: SPR (BIACORE), antibody captured, IL-1α in solution
cynomolgus IL-1α [4] = biological target: T2, cynomolgus IL-1α; experiment: as above
recombinant human IL-1α [5] = biological target: T1, recombinant human IL-1α; experiment: ELISA, antibody captured by anti-human Fc, biotinylated human IL-1α titrated
Protocol: To determine if anti-IL-1α antibodies bind to human IL-1α, ELISA plates (Nunc, MaxiSorp, Rochester, N.Y.) were incubated overnight at 4° C. with anti-human Fc antibody diluted in Pierce Coat buffer at 2 μg/ml (Jackson Immunoresearch, West Grove, Pa.). Plates were washed five times in washing buffer (PBS containing 0.05% Tween 20), and blocked for 1 hour at 25° C. with 200 μl per well superblock blocking buffer (Thermo scientific, #37515). Blocking buffer was removed by tapping plates, and […] of each antibody in PBS containing 10% superblock and 0.5% Tween-20 was added to the wells at 100 μl per well and incubated at 25° C. for 1 hour. The wells were washed five times in 1× PBST, and 1 mg/ml biotinylated antigen was titrated at 1:6 serial dilutions (for a range of mg to pg in PBS containing 10% superblock, 0.05% Tween 20). Each dilution of antigen was then added to the plates and incubated for 1 hour at 25° C. The wells were washed five times in 1× PBST and incubated for 1 hour at 25° C. with polyHRP streptavidin (KPL #474-3000, Gaithersburg, Md.). The wells were washed five times in 1× PBST, and 100 μl of ULTRA-TMB ELISA (Pierce, Rockford, Ill.) were added per well. Following color development, the reaction was stopped with 1N HCL and absorbance at 450 nm was measured. The half-maximal effective concentration (EC₅₀) values are shown in Table 9, and the numerical value indicates binding of anti-IL-1α antibodies to human IL-1α.

| Binder | IC50 for Antibody (PM), MRC-5 bioassay (IL-1α-stimulated production of IL-8) (recombinant human IL-1α [1]) | IC50 for Antibody (PM), MRC-5 bioassay (IL-1α-stimulated production of IL-8) (cynomolgus IL-1α [2]) | Kd (recombinant human IL-1α [3]) | koff (recombinant human IL-1α [3]) | kon (recombinant human IL-1α [3]) | Kd (cynomolgus IL-1α [4]) | koff (cynomolgus IL-1α [4]) | kon (cynomolgus IL-1α [4]) | EC50 (recombinant human IL-1α [5]) |
| --- | --- | --- | --- | --- | --- | --- | --- | --- | --- |
| h3D12.r16 (antibody, V domains shown) VH: EVQLVQSGAEVKKPGASVKVSCKASGYTFKYYGMNWVRQAPGQGLERMGWINTYTGQSTYADDFKGRVTFTLDTSTSTAYMELSSLRSEDTAVYYCARDIYYYGSDFAMDYWGQGTTVTVSS VL: DIQMTQSPSSLSASVGDRVTITCRASQDISNMLNWYQQKPGKAPKLLIYYTSRLKPGVPSRFSGSGSGTDYTFTISSLQPEDIATYFCQQGKTAPYTFGQGTKLEIK | 0.0006 nM | 0.0008 nM | 0.0308 nM | 2.77e-05 s⁻¹ | 900000 M⁻¹ s⁻¹ | 0.0149 nM | 1.33e-05 s⁻¹ | 901000 M⁻¹ s⁻¹ | 0.072 nM |
| h3D12-362-10/372-15 (antibody, V domains shown) VH: EVQLVQSGAEVKKPGVSVKVSCKASGYTFTTYGMHWVRQAPGQGLEWMGWINTYTGESTYADDFQGRVTFTLDTSTSTAYMELSSLRSEDTAVYFCARGIYYYGSSYAMNYWGQGTTVTVSS VL: DIQMTQSPSSLSASVGDRVTITCRASQDISNMLNWYQQKPGKTPKLLIYYTSRLYPGVPSRFSGSGSGTDYTFTISSLQPEDIATYFCQQGKTLPYAFGQGTKLEIK | 0.006 nM | 0.0126 nM | 0.115 nM | 4.1e-05 s⁻¹ | 355000 M⁻¹ s⁻¹ | 0.0578 nM | 2.25e-05 s⁻¹ | 389000 M⁻¹ s⁻¹ | 0.007 nM |
| h3D12.8 (antibody, V domains shown, also called humanized 3D12 antibody h3D12.8; VH H3D12VH.1A / VL H3D12VK.1C) VH: EIQLVQSGSELKKPGASVKVSCKASGYTFTNYGMNWVRQAPGQDLERMAWINTYTGESTYADDFKGRFVFSLDTSVSTAYLQISSLKAEDTAVYFCARGIYYYGSSYAMDYWGQGTTVTVSS VL: DIQMTQSPSSLSASVGDRVTITCRASQDISNCLNWYQQKPGKTPKLLIYYTSRLHSGVPSRFSGSGSGTDYTFTISSLQPEDIATYFCQQGKTLPYAFGQGTKLEIK | 1.95 nM | – | 1.35 nM | 0.00274 s⁻¹ | 2.04e+06 M⁻¹ s⁻¹ | – | – | – | 0.028 nM |
| h3D12.r10 (antibody, V domains shown) VH: EIQLVQSGAEVKKPGASVKVSCKASGYTFAHYGMNWVRQAPGQGLEWMGWINTYTGQSTYADDFKGRFTFTLDTSTSTAYMELSSLRSEDTAVYYCARGIYYFGSNYAMDYWGQGTTVTVSS VL: DIQMTQSPSSLSASVGDRVTITCRASQDISNMLNWYQQKPGKTPKLLIYYTSRLRSGVPSRFSGSGSGTDYTFTISSLQPEDIATYFCQQGKKPPYTFGQGTKLEIK | 0.0006 nM | 0.00098 nM | 0.0324 nM | 3.75e-05 s⁻¹ | 1.16e+06 M⁻¹ s⁻¹ | 0.00894 nM | 1.2e-05 s⁻¹ | 1.37e+06 M⁻¹ s⁻¹ | 0.0692 nM |
| h3D12.16 (antibody, V domains shown, also called humanized 3D12 antibody h3D12.16; VH H3D12VH.2A / VL H3D12VK.1C) VH: EIQLVQSGAEVKKPGASVKVSCKASGYTFTNYGMNWVRQAPGQDLERMAWINTYTGESTYADDFKGRFTFTLDTSTSTAYMELSSLRSEDTAVYFCARGIYYYGSSYAMDYWGQGTTVTVSS VL: DIQMTQSPSSLSASVGDRVTITCRASQDISNCLNWYQQKPGKTPKLLIYYTSRLHSGVPSRFSGSGSGTDYTFTISSLQPEDIATYFCQQGKTLPYAFGQGTKLEIK | 1.36 nM | – | 2.09 nM | 0.00253 s⁻¹ | 1.21e+06 M⁻¹ s⁻¹ | – | – | – | 0.01 nM |
| h3D12.r37 (antibody, V domains shown) VH: EIQLVQSGAEVKKPGASVKVSCKASGYTFKYYGMNWVRQAPGQGLERMGWINTYTGESRYADDFKGRVTFTLDTSTSTAYMELSSLRSEDTAVYYCARDIYYFGSDYAMDYWGQGTTVTVSS VL: DIQMTQSPSSLSASVGDRVTITCRASQDISNRLNWYQQKPGKAPKLLIYYASRLKPGVPSRFSGSGSGTDYTFTISSLQPEDIATYFCQQGNTPPYTFGQGTKLEIK | 0.0014 nM | 0.0006 nM | 0.0281 nM | 2.54e-05 s⁻¹ | 896000 M⁻¹ s⁻¹ | 0.0394 nM | 3.82e-05 s⁻¹ | 970000 M⁻¹ s⁻¹ | 0.114 nM |
| murine anti-human IL-1α monoclonal antibody 3D12 (antibody, V domains shown) VH: QIQLVQSGPELKKPGETVKISCKASGYTFRNYGMNWVKQAPGKDLKRMAWINTYTGESTYADDFKGRFAFSLETSASTAYLQINNLKNEDTATYFCARGIYYYGSSYAMDYWGQGTSVTVSS VL: IQMTQTTSSLSASLGDRVTISCRASQDISNCLNWYQQKPDGTVKLLIYYTSRLHSGVPSRFSGSGSGTDYSLTISNLEQEDIATYFCQQGKTLPYAFGGGTKLEINR | 1.88 nM | 0.0723 nM | – | – | – | – | – | – | – |
